This assay concerns the target VEGF receptor 2 (UniProt P35968). Briefly: ELISA; VEGFR1 or VEGFR2 (200 ng/well) covalently attached with ethyl-carbodiimide to an amino-acid-coated 96-well plate; VEGF-A (200 ng/ml) applied alone or mixed with heparin, HS or porcine ocular fluid, 4°C overnight; washed with ice-cold PBS; bound VEGF-A measured with components of a human VEGF ELISA kit; values relative to controls (%). A general note: ELISA stands for enzyme-linked immunosorbent assay.
Sequence of UniProt P35968 (P35968 20-764): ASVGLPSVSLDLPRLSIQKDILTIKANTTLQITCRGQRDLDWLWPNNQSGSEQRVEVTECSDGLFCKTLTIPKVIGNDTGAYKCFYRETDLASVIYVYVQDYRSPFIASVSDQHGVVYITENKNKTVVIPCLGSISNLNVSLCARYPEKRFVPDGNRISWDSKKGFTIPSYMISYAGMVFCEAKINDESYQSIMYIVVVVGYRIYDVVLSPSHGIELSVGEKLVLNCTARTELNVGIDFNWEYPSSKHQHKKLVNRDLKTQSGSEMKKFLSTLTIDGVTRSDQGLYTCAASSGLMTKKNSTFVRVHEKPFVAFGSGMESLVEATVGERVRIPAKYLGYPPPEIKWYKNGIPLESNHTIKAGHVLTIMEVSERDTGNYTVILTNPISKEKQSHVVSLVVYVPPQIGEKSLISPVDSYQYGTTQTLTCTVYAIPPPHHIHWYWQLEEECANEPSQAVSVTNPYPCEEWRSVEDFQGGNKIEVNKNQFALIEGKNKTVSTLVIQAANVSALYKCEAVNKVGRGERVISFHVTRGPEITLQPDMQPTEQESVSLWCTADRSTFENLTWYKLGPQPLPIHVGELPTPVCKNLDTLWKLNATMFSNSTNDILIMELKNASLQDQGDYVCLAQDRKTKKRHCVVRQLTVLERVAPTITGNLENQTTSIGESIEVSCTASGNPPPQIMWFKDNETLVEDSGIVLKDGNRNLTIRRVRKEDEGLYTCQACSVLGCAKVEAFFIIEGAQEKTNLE

In turn, “vascular endothelial growth factor-A, VEGF121 isoform (ligand)” gave a percent reduction of binding with 1,000 µg/ml soluble heparin of 9.4%.

As to “vascular endothelial growth factor-A, VEGF165 isoform (ligand)”, the percent inhibition of binding by 1,000 µg/ml of HS from bovine kidney is 88.1%, the percent inhibition of binding by porcine ocular fluid (63.2 µg/ml of HS) turned out to be 85.7% and the percent reduction of binding with 1,000 µg/ml soluble heparin came out at 59.8%.

The values are drawn from PMC2958111.
